Source: patent publication US20090175860A1 (Novartis, published 2009)

B1: 05098 in IgG format (antibody, V domains shown)
VH: QVQLVQSGAEVKKPGSSVKVSCKASGGTFSSYAISWVRQAPGQGLEWMGGIDPFGTANYAQKFQGRVTITADESTSTAYMELSSLRSEDTAVYYCARVYQDVWGQGTLVTVSS
VL: DIVMTQSPDSLAVSLGERATINCRSSQSILYGINNNFLGWYQQKPGQPPKLLIYWASTRESGVPDRFSGSGSGTDFTLTISSLQAEDVAVYYCLQYSDEPWTFGQGTKVEIKR
B2: 05185 in IgG format (antibody, V domains shown)
VH: QVQLVQSGAEVKKPGSSVKVSCKASGGTFSSYAISWVRQAPGQGLEWMGGIDPIMGTEYAQKFQGRVTITADESTSTAYMELSSLRSEDTAVYYCARVYQDVWGQGTLVTVSS
VL: DIVMTQSPDSLAVSLGERATINCRSSQSILYGINNNFLGWYQQKPGQPPKLLIYWASTRESGVPDRFSGSGSGTDFTLTISSLQAEDVAVYYCQQYAYEPNTFGQGTKVEIKR
B3: 04536 (parental anti-cMet Fab antibody) (Fab, V domains shown)
VH: QVQLVQSGAEVKKPGASVKVSCKASGYTFTGYYMNWVRQAPGQGLEWMGIINPWTGNTNYAQKFQGRVTMTRDTSISTAYMELSSLRSEDTAVYYCARDPGFFYYTPSDLWGQGTLVTVSS
VL: DIELTQPPSVSVAPGQTARISCSGDSIGNKYVHWYQQKPGQAPVLVIYADSDRPSGIPERFSGSNSGNTATLTISGTQAEDEADYYCQAYDSSMLRVFGGGTKLTVLG
notes: carries two C-terminal tags (FLAG and 6xHis)
B4: 04537 (parental anti-cMet Fab antibody) (Fab, V domains shown)
VH: QVQLVQSGAEVKKPGESLKISCKGSGYSFSNYWIGWVRQMPGKGLEWMGFIFPDTSYTRYSPSFQGQVTISADKSISTAYLQWSSLKASDTAMYYCARVKLITDYWGQGTLVTVSS
VL: DIELTQPPSVSVAPGQTARISCSGDSLRSYFVSWYQQKPGQAPVLVIYDDDDRPSGIPERFSGSNSGNTATLTISGTQAEDEADYYCASWDTLSDVEVFGGGTKLTVLG
notes: as for B3
B5: 04541 (parental anti-cMet Fab antibody) (Fab, V domains shown)
VH: QVQLQESGPGLVKPGETLSLTCTVSGGSISSSSYYWNWIRQAPGKGLEWIGEIYFGWTYYNPSLKGRVTISVDTSKNQFSLKLSSVTAEDTAVYYCARGYEFHGYTTFDYWGQGTLVTVSS
VL: DIELTQPPSVSVAPGQTARISCSGDNIGSYYVYWYQQKPGQAPVLVIYDDNDRPSGIPERFSGSNSGNTATLTISGTQAEDEADYYCQSYDFPSIVFGGGTKLTVLG
notes: as for B3
B6: 04682 (parental anti-cMet Fab antibody) (Fab, V domains shown)
VH: QVQLVQSGAEVKKPGESLKISCKGSGYSFTNYGIAWVRQMPGKGLEWMGIIYPSDSYTNYSPSFQGQVTISADKSISTAYLQWSSLKASDTAMYYCARMSYDYQHQAPSMDSWGQGTLVTVSS
VL: DIVLTQPPSVSGAPGQRVTISCSGSSSNIGSNYVIWYQQLPGTAPKLLIYDDTNRPSGVPDRFSGSKSGTSASLAITGLQSEDEADYYCSTYDNYQAGWVFGGGTKLTVLG
notes: as for B3
B7: 04687 (parental anti-cMet Fab antibody) (Fab, V domains shown)
VH: QVQLVQSGAEVKKPGSSVKVSCKASGGTFSSYAISWVRQAPGQGLEWMGGIDPFGTANYAQKFQGRVTITADESTSTAYMELSSLRSEDTAVYYCARVYQDVWGQGTLVTVSS
VL: DIVMTQSPDSLAVSLGERATINCRSSQSILYGINNNFLGWYQQKPGQPPKLLIYWASTRESGVPDRFSGSGSGTDFTLTISSLQAEDVAVYYCQQYYNHPHTFGQGTKVEIKR
notes: as for B3
B8: 05098 (affinity-improved anti-cMet Fab antibody) (Fab, V domains shown)
VH: QVQLVQSGAEVKKPGSSVKVSCKASGGTFSSYAISWVRQAPGQGLEWMGGIDPFGTANYAQKFQGRVTITADESTSTAYMELSSLRSEDTAVYYCARVYQDVWGQGTLVTVSS
VL: DIVMTQSPDSLAVSLGERATINCRSSQSILYGINNNFLGWYQQKPGQPPKLLIYWASTRESGVPDRFSGSGSGTDFTLTISSLQAEDVAVYYCLQYSDEPWTFGQGTKVEIKR
B9: 05185 (affinity-improved anti-cMet Fab antibody) (Fab, V domains shown)
VH: QVQLVQSGAEVKKPGSSVKVSCKASGGTFSSYAISWVRQAPGQGLEWMGGIDPIMGTEYAQKFQGRVTITADESTSTAYMELSSLRSEDTAVYYCARVYQDVWGQGTLVTVSS
VL: DIVMTQSPDSLAVSLGERATINCRSSQSILYGINNNFLGWYQQKPGQPPKLLIYWASTRESGVPDRFSGSGSGTDFTLTISSLQAEDVAVYYCQQYAYEPNTFGQGTKVEIKR
B10: 05097 (affinity-improved anti-cMet Fab antibody) (Fab, V domains shown)
VH: QVQLVQSGAEVKKPGSSVKVSCKASGGTFSSYAISWVRQAPGQGLEWMGGIDPFGTANYAQKFQGRVTITADESTSTAYMELSSLRSEDTAVYYCARVYQDVWGQGTLVTVSS
VL: DIVMTQSPDSLAVSLGERATINCRSSQSILYGINNNFLGWYQQKPGQPPKLLIYWASTRESGVPDRFSGSGSGTDFTLTISSLQAEDVAVYYCQQYAFGWTFGQGTKVEIKR

Tests used:
[1] = target: T1, full length human c-Met on cells (human, UniProt P08581 25-1390); assay: cell-based or functional assay
T1 sequence (P08581 25-1390): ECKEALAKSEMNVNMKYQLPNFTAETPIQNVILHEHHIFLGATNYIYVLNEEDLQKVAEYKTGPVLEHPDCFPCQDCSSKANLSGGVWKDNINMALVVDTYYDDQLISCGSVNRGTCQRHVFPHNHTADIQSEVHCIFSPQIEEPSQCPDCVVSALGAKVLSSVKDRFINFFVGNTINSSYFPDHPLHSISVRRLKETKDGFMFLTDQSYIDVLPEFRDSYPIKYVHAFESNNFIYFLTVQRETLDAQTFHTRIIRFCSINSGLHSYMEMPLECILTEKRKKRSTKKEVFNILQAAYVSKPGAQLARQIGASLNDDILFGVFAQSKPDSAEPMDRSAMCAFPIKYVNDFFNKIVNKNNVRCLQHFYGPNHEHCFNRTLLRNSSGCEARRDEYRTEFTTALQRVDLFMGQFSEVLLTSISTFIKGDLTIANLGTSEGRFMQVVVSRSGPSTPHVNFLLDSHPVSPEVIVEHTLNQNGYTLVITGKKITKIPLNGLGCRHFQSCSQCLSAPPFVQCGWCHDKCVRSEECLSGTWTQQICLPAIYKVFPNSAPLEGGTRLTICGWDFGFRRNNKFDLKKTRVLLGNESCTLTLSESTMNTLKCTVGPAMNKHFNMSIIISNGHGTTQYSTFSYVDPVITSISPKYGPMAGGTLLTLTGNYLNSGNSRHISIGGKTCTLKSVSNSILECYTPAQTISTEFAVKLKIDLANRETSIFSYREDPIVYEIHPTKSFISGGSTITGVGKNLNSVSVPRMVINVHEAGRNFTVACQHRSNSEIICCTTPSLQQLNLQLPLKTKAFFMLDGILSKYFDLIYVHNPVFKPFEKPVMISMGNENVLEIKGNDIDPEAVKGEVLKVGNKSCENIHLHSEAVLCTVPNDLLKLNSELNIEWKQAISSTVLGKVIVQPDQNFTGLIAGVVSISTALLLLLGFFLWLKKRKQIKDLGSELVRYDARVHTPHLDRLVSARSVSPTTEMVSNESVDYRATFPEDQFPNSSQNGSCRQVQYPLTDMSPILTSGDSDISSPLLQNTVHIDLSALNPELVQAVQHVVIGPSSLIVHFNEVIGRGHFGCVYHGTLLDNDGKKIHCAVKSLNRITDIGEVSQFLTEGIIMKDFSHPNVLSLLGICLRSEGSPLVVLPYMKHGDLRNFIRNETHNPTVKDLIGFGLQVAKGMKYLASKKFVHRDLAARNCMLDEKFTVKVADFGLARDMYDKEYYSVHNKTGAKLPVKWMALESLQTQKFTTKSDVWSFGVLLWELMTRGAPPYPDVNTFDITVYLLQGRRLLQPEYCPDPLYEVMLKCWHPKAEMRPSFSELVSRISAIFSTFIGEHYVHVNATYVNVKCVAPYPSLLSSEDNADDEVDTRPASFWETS

[2] = target: rhesus c-Met on 4MBr-5 cells (rhesus); assay: cell-based or functional assay
[3] = target: T1, full length human c-Met on cells; assay: cell-based or functional assay; remark: listed apart in the source
[4] = target: T2, cynomolgus c-Met on CHO cells (cynomolgus, UniProt A0A2K5UM36 25-1381, The natural precursor is cleaved into disulfide-linked alpha and beta subunits. It is given here as one mature chain, following the entry's CHAIN feature.); assay: flow cytometry, Fab titration on CHO cells overexpressing cynomolgus c-Met
T2 construct: also called cyno c-Met; CHO-cMet cyno
T2 sequence (A0A2K5UM36 entry or part of it limits assumed): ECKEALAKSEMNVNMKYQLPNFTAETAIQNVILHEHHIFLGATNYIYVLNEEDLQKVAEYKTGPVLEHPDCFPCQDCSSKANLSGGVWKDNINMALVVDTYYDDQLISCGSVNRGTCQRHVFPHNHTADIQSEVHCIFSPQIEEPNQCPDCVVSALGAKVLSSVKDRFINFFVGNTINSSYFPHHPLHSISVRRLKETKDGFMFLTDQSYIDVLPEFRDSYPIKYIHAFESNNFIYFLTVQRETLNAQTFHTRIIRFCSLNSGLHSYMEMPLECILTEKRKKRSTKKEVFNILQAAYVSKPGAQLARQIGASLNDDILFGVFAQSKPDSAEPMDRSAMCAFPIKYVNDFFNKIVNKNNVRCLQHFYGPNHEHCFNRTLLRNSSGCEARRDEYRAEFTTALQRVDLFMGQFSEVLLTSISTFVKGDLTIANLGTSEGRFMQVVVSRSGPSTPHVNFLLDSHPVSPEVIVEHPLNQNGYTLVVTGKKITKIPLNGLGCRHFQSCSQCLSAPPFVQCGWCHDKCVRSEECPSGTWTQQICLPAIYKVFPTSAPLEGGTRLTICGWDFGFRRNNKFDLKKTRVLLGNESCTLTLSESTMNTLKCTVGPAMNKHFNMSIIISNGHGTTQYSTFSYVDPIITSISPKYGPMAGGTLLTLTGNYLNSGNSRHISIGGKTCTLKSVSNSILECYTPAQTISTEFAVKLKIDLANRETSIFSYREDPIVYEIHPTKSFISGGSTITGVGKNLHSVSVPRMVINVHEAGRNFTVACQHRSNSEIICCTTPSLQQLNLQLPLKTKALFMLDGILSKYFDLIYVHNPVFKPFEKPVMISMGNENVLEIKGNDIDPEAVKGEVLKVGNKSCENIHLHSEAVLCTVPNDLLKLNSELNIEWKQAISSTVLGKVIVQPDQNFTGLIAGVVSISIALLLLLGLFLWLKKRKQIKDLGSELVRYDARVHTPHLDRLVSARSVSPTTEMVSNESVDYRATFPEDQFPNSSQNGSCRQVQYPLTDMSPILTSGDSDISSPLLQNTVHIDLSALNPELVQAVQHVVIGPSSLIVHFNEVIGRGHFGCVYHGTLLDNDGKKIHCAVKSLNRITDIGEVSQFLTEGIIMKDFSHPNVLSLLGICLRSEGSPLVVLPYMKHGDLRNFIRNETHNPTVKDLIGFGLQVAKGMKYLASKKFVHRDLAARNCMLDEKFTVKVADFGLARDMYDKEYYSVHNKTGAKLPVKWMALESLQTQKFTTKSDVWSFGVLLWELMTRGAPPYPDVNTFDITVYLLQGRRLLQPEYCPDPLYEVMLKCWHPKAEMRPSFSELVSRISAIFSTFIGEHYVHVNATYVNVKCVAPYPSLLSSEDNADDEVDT
Description: (§1) In order to further characterize the anti-c-Met antibodies, the affinity to full length human and cynomolgus c-Met is determined. GTL16, CHO cells overexpressing cynomolgus c-Met or rhesus 4 MBr-5 cells are washed, trypsinised, and suspended in PBS containing 3% FCS (3% FCS/PBS) at 4-C. 2-5×10⁵ cells/sample are resuspended in 140 μl of 3% FCS//PBS containing 5 μg/ml of purified anti-cMet Fabs or serial dilutions thereof. As a positive control 5 μg/ml of DO24 (mouse IgG2a), anti-human c-Met is used. The cells are incubated for 30-60 minutes at 4° C. before being pelleted by centrifugation for 2 min at 2000 rpm (716 g) at 4° C. and washed in 200 μl of in chilled 3% FCS/PBS. The cells are again pelleted by centrifugation and the PBS gently removed. Cells are resuspended in 100 μl of goat anti-human IgG (H+L) PE conjugated (Jackson Cat No. 109-116-088) diluted 1:200 in 3% FCS/0.02% NaN₃/PBS; For the positive control goat anti-mouse IgG (H+L)-PE conjugated (Jackson Cat No. 115-116-146) diluted 1:200 in 3% FCS/PBS is used. Samples are incubated in the dark for 30-60 min at 4° C. Following centrifugation and washing in 200 μl of 3% FCS/0.02%/NaN₃/PBS the cells are resuspended in 100 μl of 3% FCS/PBS and assayed using FACS-array or FACS-Calibur.

[5] = target: T3, rhesus c-Met on 4MBr-5 cells (rhesus); assay: flow cytometry, Fab titration on rhesus 4MBr-5 cells
T3 construct: whole, on cells
Description: as §1

[6] = target: T2, cynomolgus c-Met on CHO cells; assay: flow cytometry, Fab on CHO-cyno c-Met cells
Description: as §1

recombinant human c-Met [7] = target: T4, recombinant human c-Met (human, UniProt P08581 25-932, limits assumed); assay: SPR (BIAcore), c-Met amine-coupled on CM5 chip, Fab 16-500 nM as analyte
T4 construct: Soluble recombinant protein: immobilised on the CM5 chip in Biacore, in solution in the equilibrium titration; The precursor is cleaved into disulfide-linked alpha and beta subunits; also called Hepatocyte Growth Factor Receptor
T4 sequence (P08581 25-932 limits assumed): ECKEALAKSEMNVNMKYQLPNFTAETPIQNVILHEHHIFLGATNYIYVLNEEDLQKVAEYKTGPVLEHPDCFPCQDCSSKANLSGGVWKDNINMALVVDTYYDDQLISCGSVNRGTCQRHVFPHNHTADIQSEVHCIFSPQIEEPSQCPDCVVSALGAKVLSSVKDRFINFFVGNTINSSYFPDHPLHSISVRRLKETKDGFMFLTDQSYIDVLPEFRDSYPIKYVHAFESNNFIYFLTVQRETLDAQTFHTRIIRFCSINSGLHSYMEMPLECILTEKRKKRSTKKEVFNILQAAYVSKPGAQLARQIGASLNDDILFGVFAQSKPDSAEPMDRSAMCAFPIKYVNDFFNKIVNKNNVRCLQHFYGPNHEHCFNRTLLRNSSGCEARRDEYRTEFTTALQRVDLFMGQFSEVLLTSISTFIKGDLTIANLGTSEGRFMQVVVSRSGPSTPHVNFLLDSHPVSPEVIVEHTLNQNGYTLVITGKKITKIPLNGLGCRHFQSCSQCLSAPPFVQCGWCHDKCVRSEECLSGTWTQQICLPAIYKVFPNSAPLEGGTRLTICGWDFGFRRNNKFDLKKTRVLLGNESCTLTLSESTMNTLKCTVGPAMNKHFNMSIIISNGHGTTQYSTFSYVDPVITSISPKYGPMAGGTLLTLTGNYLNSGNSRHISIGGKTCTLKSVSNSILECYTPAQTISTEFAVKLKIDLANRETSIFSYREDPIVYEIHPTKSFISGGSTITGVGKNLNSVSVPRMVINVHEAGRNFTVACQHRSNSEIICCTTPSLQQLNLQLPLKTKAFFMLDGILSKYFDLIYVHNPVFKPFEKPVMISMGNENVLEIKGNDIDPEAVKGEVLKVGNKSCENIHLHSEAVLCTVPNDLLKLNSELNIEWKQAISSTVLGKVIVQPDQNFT
Description: (§2) Using these clones, kinetic SPR analysis is performed on a CM5 chip (Biacore, Sweden) which had been coated with a density of ˜400 RU of either recombinant human c-Met, in 10 mM Na-acetate pH 4.5 using standard EDC-NHS amine coupling chemistry. […] PBS (136 mM NaCl, 2.7 mM KCl, 10 mM Na2HPO4 , 1.76 mM KH2PO4 pH 7.4) is used as the running buffer. The Fab preparations are applied in concentration series of 16-500 nM at a flow rate of 20 μl/min. Association phase is set to 60 s and dissociation phase to 120 s.

recombinant human c-Met [8] = target: T4, recombinant human c-Met; assay: SPR (BIAcore), Fab on immobilised human c-Met
Description: as §2

[9] = target: T1, full length human c-Met on cells; assay: flow cytometry, Fab on GTL-16 cells
Description: as §1

[10] = target: T1, full length human c-Met on cells; assay: flow cytometry, Fab titration on GTL-16 cells
Description: as §1

recombinant human c-Met [11] = target: T4, recombinant human c-Met; assay: solution equilibrium titration (SET), ECL detection (BioVeris), Fab with human c-Met in solution
Description: Electrochemiluminescence (ECL) based affinity determination in solution and data evaluation are basically performed as described by Haenel et al., 2005. A constant amount of Fab is equilibrated with different concentrations (serial 3ⁿ dilutions) of human c-Met (4 nM starting concentration) in solution. Biotinylated human c-Met coupled to paramagnetic beads (M-280 Streptavidin, Dynal), and BV-Tag™ (BioVeris Europe, Witney, Oxfordshire, UK) labelled anti-human (Fab)′₂ (Dianova) is added and the mixture incubated for 30 min. Subsequently, the concentration of unbound Fab is quantified by ECL detection using the M-SERIES® 384 analyzer (BioVeris Europe).
(§3) Using the assay conditions described above, the affinities for the affinity-optimized anti-c-Met Fabs are determined in solution. Affinities are determined for antibodies with KDs below 4.6 pM to human c-Met. FACs based analysis of binding to cyno-c-Met expressed on CHO cells, as described above, is carried out.

[12] = target: T2, cynomolgus c-Met on CHO cells; assay: flow cytometry, Fab on CHO-cyno c-Met cells; remark: listed apart in the source
Description: as §1, §3

| Binder | EC50 [nM] Inhibition of HGF driven migration NCI-H441 in 1% serum [1] [nM] | EC50 [nM] Inhibition of HGF driven proliferation 4MBr-5 in 10% serum [2] [nM] | EC50 [nM] Inhibition of HGF stimulated c-Met autophosphorylation in A549 [3] [nM] | Kd [4] [pM] | Kd [5] [pM] | Kd [6] [pM] | Kd (recombinant human c-Met [7]) [pM] | Kd (recombinant human c-Met [8]) [pM] | Kd [9] [pM] | Kd [10] [pM] | Kd (recombinant human c-Met [11]) [pM] | Kd [12] [pM] |
| --- | --- | --- | --- | --- | --- | --- | --- | --- | --- | --- | --- | --- |
| B1 | 0.73 | 0.5 | 0.419 |  |  |  |  |  |  |  |  |  |
| B2 | 1.2 | 0.13 | 0.219 |  |  |  |  |  |  |  |  |  |
| B3 |  |  |  | 500 | 100 | 229000 | 1400 | 1400 | 1700 | 400 |  |  |
| B4 |  |  |  |  | 100 | 12700 | 1700 | 1700 | 1500 | 2600 |  |  |
| B5 |  |  |  |  | 100 | 600 | 2600 | 2600 | 1700 | 500 |  |  |
| B6 |  |  |  | 300 | 300 |  | 11200 |  |  | 1200 |  |  |
| B7 |  |  |  | 1100 | 1200 | 1300 | 800 | 800 | 4000 | 5700 |  |  |
| B8 |  |  |  |  |  |  |  |  |  |  | 2.1 | 0.3 |
| B9 |  |  |  |  |  |  |  |  |  |  | 4.6 | 0.29 |
| B10 |  |  |  |  |  |  |  |  |  |  | 3.6 | 0.68 |
